Laboratory results reported in patent US20190330358A1.

Legend:
[1] = molecular target: human AITR expressed on the cell surface (human) (UniProt Q9Y5U5); assay: flow cytometry on iTreg cells, surface AITR
[2] = molecular target: human AITR expressed on the cell surface (human) (UniProt Q9Y5U5); assay: flow cytometry on human iTreg cells; average of TRX518 and MK4166
[3] = molecular target: human AITR expressed on the cell surface (human) (UniProt Q9Y5U5); assay: flow cytometry on AITR-5 cells (HEK293 overexpressing human AITR); unstained AITR-5 panel: Q1 0.98

human AITR expressed on the cell surface (human), sequence (Q9Y5U5 26-241): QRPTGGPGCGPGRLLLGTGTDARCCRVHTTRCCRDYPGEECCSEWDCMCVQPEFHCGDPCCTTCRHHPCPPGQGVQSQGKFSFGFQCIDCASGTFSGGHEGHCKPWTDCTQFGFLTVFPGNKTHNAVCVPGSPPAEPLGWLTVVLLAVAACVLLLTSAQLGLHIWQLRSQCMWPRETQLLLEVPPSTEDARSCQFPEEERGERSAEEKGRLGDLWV

| % of iTreg cells in the upper right quadrant (CD4+, antibody-positive) [1] [%] | % of iTreg cells recognized as positive for human AITR [2] [%] | % of AITR-5 cells in Q1 (antibody-positive) [3] [%] | Substance |
| --- | --- | --- | --- |
| 17.1 | 19 |  | MK4166 (Merck's anti-GITR antibody) |
| 20.8 | 19 |  | TRX518 (antibody) |
| 0.79 |  | 1.95 | Isotype control (antibody) |
